B1: TPR t1 (parent)
chain: GACCAAUCUGCCCUCAGAGCUCGAGAACAUCUUCGGAUGCAGAGGAGGCAGGCUUCGGUGGCGCGAUAGCGCCAACGUCCUCAACCUCCAAUGCAUCCCACCACAUGAUGAUGCCUGAAGAGCCUUGGUUUUUUG

Variants of: B1
Test: polymerase ribozyme fitness, log enrichment relative to wild type (log ratio); higher = more active; in vitro selection for triplet polymerase activity
Summary of the method: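 Mutant libraries of both subunits of a heterodimeric triplet polymerase ribozyme were PCR-built, transcribed, and selected once in triplicate, with frozen incubation at −7 °C and capture of gel-excised extended constructs on streptavidin beads before RT-PCR. Illumina sequencing of input and output libraries was filtered to genotypes with ≥10 input reads and ≥1 read per output. Fitness is the logarithm of genotype enrichment over wild-type enrichment, using inverse-variance-weighted replicate averages. The logarithm is base 2.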

Row | Variant | polymerase ribozyme fitness (log ratio)
1 | C98U U129C | -1.46
2 | G48C C123G | 0.677
3 | C13U C20A | -2.74
4 | C101A G107A | -5.93
5 | A6C C98A | -4.73
6 | C4U A6C C13U G48U C49G C53U G113C | -3.03
7 | G19U A24G U38C G61U G113A | -3.85
8 | C11A G69C | -2.03
9 | A95G C101A A111C | -1.91
10 | G48U C49U C73G G120U | 0.0945
11 | C56U C62A A75U U81C C114A U125G | -4.69
12 | C13U G17A C62U U78A U81A U112A | -4.61
13 | C13G C62A C94U | -3.01
14 | C34U C73A A111U C114G G135A | -6.34
15 | G47C G63U | -3.66
16 | A18G U106A U109C | -3.8
17 | G10U C20A | -3.25
18 | A41C C85U | -2.37
19 | A6U C8G G60A U130C | -0.0856
20 | U112G G122A | -1.74
21 | G58C U112C A121G | 1.44
22 | U14A G57C G58A G61A C89U G127U U129C U130C | -6.54
23 | C3U A50U G52U | -3.28
24 | U7A C73G C82G | -1.56

Row | Variant | polymerase ribozyme fitness (log ratio)
25 | G10U A27G | -0.702
26 | C34G C72A | -6.05
27 | C86G C97U C115G | -4.24
28 | A50U G71C G117A | -3.1
29 | A6G C70U | -1.29
30 | C40A U81C | -1.68
31 | C3A C20U U38A G61A C82A G110A G127A | -6.34
32 | G39C A90G | 0.876
33 | U33G G63C | -5.3
34 | C13U C56A C114U | -1.73
35 | C40U G47A G48C G93A G122A | -1.34
36 | G117C G120A | -3.91
37 | C11A A74U | -2.52
38 | C22G U131A | -3.47
39 | A41U G69U G93C | -0.276
40 | C73U U130A U131A | -0.703
41 | C11U C53G C56U U87C G117U G120A G122A | -3.01
42 | C70U C82G G117U | -3.92
43 | G36U C64U | -1.21
44 | C73G A91C G127A | -3.34
45 | A16U G48U C62G C85A | -3.66
46 | C72U U96C | -1.2
47 | G71U U78C | -0.468
48 | C11U A108G A118U | -3.04

Row | Variant | polymerase ribozyme fitness (log ratio)
49 | C12U G61A C73A C88A | -1.6
50 | C11A G71U A91G A121U | 0.632
51 | C28G C124G | -0.979
52 | G42A G113U | -3
53 | G23A G69U | -3.97
54 | G48A U126G | -2.42
55 | G57C G69A | -3
56 | C8G G93A A111C | 0.513
57 | C20A A50U | -4.4
58 | C11U C13G U30G U55A C70U A108U | -3.69
59 | C11G A16G G71U C101A G128U | -3.82
60 | G10U G17A C56G C62U C79U | -4.53
61 | C40U G47U U109A U129G | -7.79
62 | C15U G45C G117A | -1.11
63 | C40G U133G | -0.607
64 | A90U | -1.2
65 | A46C C64A | -5.98
66 | C12U G45A G51U | -3.98
67 | C40A G44A U78C | -2.1
68 | A90C C114A C124A U125C | 0.0876
69 | U7G G63C A91U | -2.27
70 | C13G G19U C73U G113U | -5.86
71 | C56U C85A | -1.96
72 | C28U A43G C72G U112G | -5.26

Row | Variant | polymerase ribozyme fitness (log ratio)
73 | C72G C94A A119U | -1.99
74 | G36C G45C A111C G122A | -2.97
75 | C123A U132A | 1.54
76 | C15G C20U C62A G117U | -3.55
77 | C11U C82G C102A U112A G120C U125G | -5
78 | U7G A50G | 0.715
79 | G42U A46U C62U | -2.07
80 | C4U G51A G61U C82G C88U G93C | -5.15
81 | C13A C101A | -2.54
82 | C64A G120U | -6.12
83 | G10A C40A A50U U78A | -4.41
84 | A6U U9G C40G G60U C80U U126C U131A | -3.72
85 | G52C C70U C72U G117U | -4.23
86 | C8U G10C C13A C49G C53A C101A U133A | -3
87 | C73U U125C | -2.06
88 | A46C G69A | -2.87
89 | G19C C62U U112G | -6.55
90 | G77A C80A U92C | -5.14
91 | C8A G45A A90U G117A | -1.14
92 | U55G C72A U106G G113U U133A | -5.76
93 | G42A C70U U81A G93U | -6.73
94 | C20U G122A | -2.04
95 | C8U C53G C56A C86U U96G G117U | -2.48
96 | C53G C73A C102A G128C | -4.69

Row | Variant | polymerase ribozyme fitness (log ratio)
97 | A29U G58C G120C C124A | -1.02
98 | C56G C72G C82A C114U | -4.76
99 | C8A U38A G42U G45A G61U | -1.89
100 | G69U G135C | 1.06
101 | G69U G128C | -1.01
102 | G25A C56U | -5.12
103 | A68U C123U | -5.66
104 | C40U G57C G58A U116G | -3.95
105 | U7G A41U C62U U132C | -0.941
106 | U7A C79G | -1.03
107 | U9G A46C U87A G93C C115A U116C A119C | -3.97
108 | G51U G60A C123U | -1.47
109 | U32C G42U A43U U87C C94A C101U C102U | -5.8
110 | C64A A84C | -5.15
111 | C3U G71U C101G | -3.08
112 | C49A G107U | -4.61
113 | C11G A18U A41U G57A A74U C114U G128C | -4.05
114 | C62G G120C | -0.544
115 | C22G G93A | -3.42
116 | A5C G17A A41G C53A C56A C70U G71A U112C | -6.41
117 | U14A G36C G47A | -4.55
118 | U9A C20G C64A U112A G128A | -5.8
119 | C62U A90C | -2.52
120 | U7G C28A G57U G110C | -1.2

Row | Variant | polymerase ribozyme fitness (log ratio)
121 | G23A G61A | -4.6
122 | A66C C70U G113A | -2.81
123 | C8U A37U C70A U112C | 0.338
124 | C72A U129C | -0.6
125 | G52U C73U | -0.9
126 | C73U C79A A95G | -0.961
127 | G44U G57U C89U C104U | -1.47
128 | G44U G47U C49G | -5.36
129 | C49A C72A C94A | -0.633
130 | C8A G36A C79U U96G C102U | -2.91
131 | G71U U109A | -4.43
132 | A2G G135U | -0.44
133 | C72G U78G U116A | -3.97
134 | A91G G113C G120A | -3.31
135 | A6U C20G C76U G113U | -1.29
136 | A2C G47A G93U | -5.29
137 | G47A C82U C86G | -0.151
138 | G45A C64U A83G U96G G122A | -2.56
139 | C3U G58C | -0.467
140 | C94U C115U A121G | -2.09
141 | A29U C56U | -1.54
142 | C70A C102A U112C | -2.45
143 | C31U U87C U96A G120U | -5.92
144 | C70G C80A C104G C124G | -6.03

Row | Variant | polymerase ribozyme fitness (log ratio)
145 | C11G G113U G128U | -3.42
146 | A27U U54A C115A | -3.07
147 | C40G A43U C73A U126C | -3.57
148 | C4U G10U C70G | -4.35
149 | A74G A103G G117U U133G | -6.53
150 | G17C G48U G60A C89G C102A C114A | -6.76
151 | C20U C70G | -3.54
152 | G36C G61C C86U C114U | -6.11
153 | A41G G69C G117U | -4.65
154 | U9A A43U C76A C85G G120A U130C | -1.48
155 | A18C G113C | -3.55
156 | G51U C72A U130G | -3.04
157 | C8G C11U C22G C72U | -3.41
158 | G45C G110C | -5.03
159 | A41U C53U G120U | -1.89
160 | C4U C12U C13U C124G | 1.84
161 | C8U A16C C64U U112C U132A | 1.19
162 | G44U C64U | -1.48
163 | C3U C11U G71A A119G | -0.255
164 | G48C G60A | -1.1
165 | C12G C34A A41C G71C C79A | -6.92
166 | C40G G52A G117A | -2.65
167 | C13A C70U C114G | -6.69

— the RNAGym collection of RNA variant scans (doi:10.1073/pnas.2313332121)
